Data on 1 substance can be found in article PMC4200526.

This test concerns the target toluene 4-monooxygenase hydroxylase (T4moH), (TmoA-TmoB-TmoE)2, with C-terminally truncated TmoA and TmoE (UniProt Q00456).
Chain of UniProt Q00456 (Q00456 1-491, chain 1 of 3): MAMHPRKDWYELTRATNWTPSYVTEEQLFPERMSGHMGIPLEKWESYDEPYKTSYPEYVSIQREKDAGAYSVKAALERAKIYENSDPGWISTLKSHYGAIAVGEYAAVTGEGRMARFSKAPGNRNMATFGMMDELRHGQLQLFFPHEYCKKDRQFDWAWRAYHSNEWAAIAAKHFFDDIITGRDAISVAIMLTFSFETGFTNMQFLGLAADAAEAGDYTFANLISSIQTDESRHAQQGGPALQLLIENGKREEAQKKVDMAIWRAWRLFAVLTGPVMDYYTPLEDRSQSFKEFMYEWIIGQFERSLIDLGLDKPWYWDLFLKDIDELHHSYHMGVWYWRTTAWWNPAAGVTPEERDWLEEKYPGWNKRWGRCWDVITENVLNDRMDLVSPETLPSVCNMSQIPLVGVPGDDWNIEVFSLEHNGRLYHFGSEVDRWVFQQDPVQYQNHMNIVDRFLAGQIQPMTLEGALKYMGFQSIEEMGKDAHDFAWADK
Chain of UniProt Q00456 (Q00457 whole entry, chain 2 of 3, further chain, the tested form may be a part): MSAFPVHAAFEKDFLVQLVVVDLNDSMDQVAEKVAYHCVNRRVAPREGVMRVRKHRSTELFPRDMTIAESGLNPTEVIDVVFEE
Chain of UniProt Q00456 (Q00460 1-306, chain 3 of 3, further chain): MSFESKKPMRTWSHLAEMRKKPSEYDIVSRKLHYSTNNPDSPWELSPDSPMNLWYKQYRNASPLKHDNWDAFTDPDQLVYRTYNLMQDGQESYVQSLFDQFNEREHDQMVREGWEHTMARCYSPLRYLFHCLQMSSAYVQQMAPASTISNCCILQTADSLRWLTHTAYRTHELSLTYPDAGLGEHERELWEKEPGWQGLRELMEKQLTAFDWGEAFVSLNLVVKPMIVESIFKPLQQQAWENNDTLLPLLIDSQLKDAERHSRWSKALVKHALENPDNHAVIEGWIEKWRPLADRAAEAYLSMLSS

For the substance “T4moC, Rieske-type ferredoxin of toluene 4-monooxygenase, Cys7Ser/Cys84Ala/Cys85Ala variant (used for 4P1C) (from UniProt Q00458 8-112) (natural protein)”, the apparent KM for T4moC in steady-state toluene hydroxylation (4 uM T4moH, 0.4 uM T4moF), before the increase caused by T4moD was determined as 3 µM and the apparent KM for T4moC in steady-state toluene hydroxylation (4 uM T4moH, 0.4 uM T4moF), increased by inhibiting T4moD was found to be 16 µM.
